Columns and labels:
[1] = biological target: MPT64 (Mycobacterium tuberculosis); test: CAPILIA TB kit; pretreated patient sputum, sample number 6, smear 3+
[2] = biological target: MPT64 (Mycobacterium tuberculosis); test: CAPILIA TB kit; pretreated patient sputum, sample number 3, smear +
[3] = biological target: MPT64 (Mycobacterium tuberculosis); test: CAPILIA TB kit; pretreated patient sputum, sample number 2, smear +
[4] = biological target: MPT64 (Mycobacterium tuberculosis); test: CAPILIA TB kit; pretreated patient sputum, sample number 5, smear 2+
[5] = biological target: MPT64 (Mycobacterium tuberculosis); test: CAPILIA TB kit; pretreated patient sputum, sample number 7, smear 3+
[6] = biological target: MPT64 (Mycobacterium tuberculosis); test: CAPILIA TB kit; pretreated patient sputum, sample number 1, smear +
[7] = biological target: MPT64 (Mycobacterium tuberculosis); test: CAPILIA TB kit; pretreated patient sputum, sample number 4, smear 2+
[8] = biological target: MPT64 (Mycobacterium tuberculosis); test: CAPILIA TB kit; pretreated patient sputum, sample number 8, smear 3+

CAPILIA TB (trade name; manufactured by TAUNS LABORATORIES INC.)
Absorbance [1]: 0 | Absorbance [2]: 0 | Absorbance [3]: 0 | Absorbance [4]: 0 | Absorbance [5]: 0 | Absorbance [6]: 0 | Absorbance [7]: 0 | Absorbance [8]: 23
